Results reported in paper PMC8632240.

Target: human angiotensin-converting enzyme 2 extracellular domain fused to mouse Fc (hACE2-ECD-mFc) (human) (UniProt Q9BYF1)
Test: ELISA

Chain of human angiotensin-converting enzyme 2 extracellular domain fused to mouse Fc (hACE2-ECD-mFc) (human) (Q9BYF1 19-617): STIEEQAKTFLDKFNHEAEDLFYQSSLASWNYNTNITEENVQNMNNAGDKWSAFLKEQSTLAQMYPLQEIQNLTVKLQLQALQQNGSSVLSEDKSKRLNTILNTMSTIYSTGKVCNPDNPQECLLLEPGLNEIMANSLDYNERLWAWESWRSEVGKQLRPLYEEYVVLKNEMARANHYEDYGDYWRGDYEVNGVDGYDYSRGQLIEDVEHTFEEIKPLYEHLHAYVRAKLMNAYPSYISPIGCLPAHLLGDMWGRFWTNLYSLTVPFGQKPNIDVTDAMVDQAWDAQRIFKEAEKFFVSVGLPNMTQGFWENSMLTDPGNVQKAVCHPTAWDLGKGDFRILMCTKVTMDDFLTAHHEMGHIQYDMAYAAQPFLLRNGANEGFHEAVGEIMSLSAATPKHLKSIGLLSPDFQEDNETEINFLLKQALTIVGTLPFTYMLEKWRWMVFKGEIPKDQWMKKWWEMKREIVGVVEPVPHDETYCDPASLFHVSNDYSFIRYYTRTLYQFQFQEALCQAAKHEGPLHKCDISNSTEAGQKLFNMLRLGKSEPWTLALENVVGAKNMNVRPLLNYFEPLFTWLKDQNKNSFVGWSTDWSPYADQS

SARS-CoV-2 S-RBD reference (spike receptor-binding domain, reference type) (from UniProt P0DTC2 319-541) (domain or fragment)
IC50: 123 nM
